According to patent US20220153839A1 (NBE THERAPEUTICS, published 2022):

Columns and labels:
[1] = biological target: T1, hROR2 (human, UniProt Q01974); test: flow cytometry on 63-12 / hROR2 cells; anti-His Alexa Fluor 488
T1 construct: full length, on the cell surface; also called 63-12 / hROR2; ROR2 on T47D cells
Method: Flow cytometry: Cells were stained using standard flow cytometry methodology. Briefly, for purified anti-ROR1 Fab (FIG. 3), 0.1-1×10⁶ cells were stained with 1000 ng/100 μL of Fab on ice for 1 h. After washing twice with ice-cold flow cytometry buffer (PBS containing 1% (v/v) BSA, 0.1% sodium azide and 1 mM EDTA), the cells were incubated with a 1:1000 dilution of a mouse anti-His tag mAb conjugated to Alexa Fluor 488 (Qiagen) in 100 μL flow cytometry buffer on ice for 30 min. For purified anti-ROR1 IgG1 (FIG. 8), 0.1-1×10⁶ cells were blocked by 4% goat serum for 15 min at room temperature and then incubated with 100 ng/100 μL of IgG on ice for 1 h. After washing twice with ice-cold flow cytometry buffer, cells were stained with a 1:500 dilution of goat anti-human IgG, Fcγ pAbs conjugated to APC (Jackson ImmunoResearch) in 100 μL flow cytometry buffer on ice for 30 min. For commercial goat anti human ROR1 polyclonal antibody (FIG. 8), 0.1-1×10⁶ cells were stained with 200 ng/100 μL of Ab on ice for 1 h. […] Finally, 4′,6-diamidino-2-phenylindole (DAPI) was added to a final concentration of 100 ng/mL to exclude dead cells from the analysis. Cells were analyzed using a FACSCalibur instrument (BD Biosciences) and FlowJo analytical software (Tree Star, Ashland, Oreg.).

[2] = biological target: T2, Fr + Ki (human, UniProt Q01973); test: ELISA on directly coated hFc fusion proteins of hROR1 domains; anti-His-HRP; A405
T2 construct: Frizzled and Kringle domains of the extracellular domain; also called hFc-hROR1-Fr-Ki
T2 sequence (Q01973 165-391 limits assumed): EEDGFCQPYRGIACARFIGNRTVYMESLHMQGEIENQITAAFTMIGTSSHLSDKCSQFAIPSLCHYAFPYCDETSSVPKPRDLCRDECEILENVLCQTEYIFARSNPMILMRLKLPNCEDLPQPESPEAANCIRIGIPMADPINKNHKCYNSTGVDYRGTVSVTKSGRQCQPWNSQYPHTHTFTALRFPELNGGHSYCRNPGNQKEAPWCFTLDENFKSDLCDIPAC
Method: (§1) ELISA: For ELISA (FIG. 2), each well of a 96-well Costar 3690 plate (Corning, Corning, N.Y.) was coated with 100 ng anti-human IgG1 Fc in 25 μL coating buffer (0.1 M Na₂CO₃, 0.1 M NaHCO₃, pH 9.6) for 1 h at 37° C. After blocking with 150 μL 3% (w/v) BSA/TBS for 1 h at 37° C., hFc-hROR1 or hFc-mROR1 was captured following incubation at 100 ng/50 μL for 1 h at 37° C. Then 100 ng/50 μL of Fab was applied in each well at 37° C. 2 h later, 50 μL of a 1:1000 dilution of a mouse anti-His tag mAb conjugated to horse radish peroxidase (HRP) (R&D Systems, Minneapolis, Minn.) in 1% (w/v) BSA/TBS was used to detect the Fab. To determine the epitopes (FIG. 4), hFc fusion proteins containing different domains of hROR1 were coated directly, followed by incubation with Fab before detection by mouse anti-His tag mAb conjugated to HRP. Washing with PBS was repeated and colorimetric detection was performed using 2,2′-azino-bis(3-ethylbenzthiazoline)-6-sulfonic acid (Roche) as substrate according to the manufacturer's directions. The absorbance was measured at 405 nm using a SpectraMax M5 microplate reader (Molecular Devices; Sunnyvale, Calif.) and SoftMax Pro software (Molecular Devices).

[3] = biological target: T3, Ig (human, UniProt Q01973); test: as above
T3 construct: Ig domain of the extracellular domain; also called hFc-hROR1-Ig
T3 sequence (Q01973 42-147 limits assumed): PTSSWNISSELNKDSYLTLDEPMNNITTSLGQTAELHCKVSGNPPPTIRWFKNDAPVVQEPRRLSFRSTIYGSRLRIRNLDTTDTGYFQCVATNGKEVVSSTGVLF
Method: as §1

[4] = biological target: T4, Kr (human, UniProt Q01973); test: as above
T4 construct: Kringle domain of the extracellular domain; also called hFc-hROR1-Kr
T4 sequence (Q01973 312-391 limits assumed): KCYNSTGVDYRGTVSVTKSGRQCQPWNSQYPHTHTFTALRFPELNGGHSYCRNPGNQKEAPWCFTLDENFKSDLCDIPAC
Method: as §1

[5] = biological target: T5, Fr; test: as above
T5 construct: also called hFc-hROR1-Fr
T5 sequence (chain, as listed by the source limits assumed): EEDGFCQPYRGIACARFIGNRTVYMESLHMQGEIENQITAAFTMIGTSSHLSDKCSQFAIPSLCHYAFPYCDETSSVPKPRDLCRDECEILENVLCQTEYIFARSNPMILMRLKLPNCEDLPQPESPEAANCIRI
Method: as §1

[6] = biological target: T6, hFc-hROR2 (extracellular domain of human ROR2 fused to the Fc domain of human IgG1) (human, UniProt Q01974 34-403); test: ELISA as for hFc-hROR1; third bar series, keyed 'hFc-hROR1' a second time on the sheet, taken as hFc-hROR2 by legend paragraph 27
T6 construct: extracellular domain; not shown: Fc domain of human IgG1
T6 sequence (Q01974 34-403): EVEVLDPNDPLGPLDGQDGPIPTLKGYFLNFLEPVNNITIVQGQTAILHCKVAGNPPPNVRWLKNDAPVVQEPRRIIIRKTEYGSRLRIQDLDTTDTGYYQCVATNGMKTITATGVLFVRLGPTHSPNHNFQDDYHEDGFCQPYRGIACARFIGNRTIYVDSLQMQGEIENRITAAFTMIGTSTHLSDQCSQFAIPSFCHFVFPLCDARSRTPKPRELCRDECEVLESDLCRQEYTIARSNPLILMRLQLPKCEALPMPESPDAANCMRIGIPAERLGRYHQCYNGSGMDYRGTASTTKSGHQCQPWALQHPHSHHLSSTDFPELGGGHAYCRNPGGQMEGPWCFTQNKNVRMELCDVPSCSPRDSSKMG
Method: (§2) The binding of each chimeric rabbit/human Fab to hROR1 and mROR1 fused with human IgG1 Fc (hFc-hROR1 and hFc-mROR1) was analyzed by ELISA. hFc-ROR1 or hFc-mROR1 were captured by anti-human IgG1 Fc antibody immobilized on plate and then incubated with hROR1 specific Fabs comprising a His-tag via detection with mouse anti-His tag.
as §1

[7] = biological target: T7, hFc-mROR1 (extracellular domain of mouse ROR1 fused to the Fc domain of human IgG1) (human; mouse, UniProt Q9Z139 30-406); test: ELISA; hFc fusion captured by coated anti-human IgG1 Fc; anti-His-HRP; A405
T7 construct: extracellular domain; not shown: Fc domain of human IgG1
T7 sequence (Q9Z139 30-406): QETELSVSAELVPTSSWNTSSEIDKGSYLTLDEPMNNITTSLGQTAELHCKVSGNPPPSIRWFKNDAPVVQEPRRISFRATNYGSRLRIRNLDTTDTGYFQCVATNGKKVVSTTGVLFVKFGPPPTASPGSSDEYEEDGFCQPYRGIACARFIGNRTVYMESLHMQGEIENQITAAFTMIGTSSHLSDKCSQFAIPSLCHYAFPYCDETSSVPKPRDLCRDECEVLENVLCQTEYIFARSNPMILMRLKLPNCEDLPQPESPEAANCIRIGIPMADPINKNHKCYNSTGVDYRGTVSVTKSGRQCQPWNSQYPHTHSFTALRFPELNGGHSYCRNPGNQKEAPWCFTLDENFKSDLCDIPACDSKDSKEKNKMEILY
Method: as §2, §1

[8] = biological target: T8, hFc-hROR1 (extracellular domain of human ROR1 fused to the Fc domain of human IgG1) (human, UniProt Q01973 30-406); test: SPR (Biacore X100); hFc-hROR1 captured by anti-human Fcγ antibody on CM5; Fab as analyte; 1:1 Langmuir fit
T8 construct: extracellular domain; also called hFc-ROR1; not shown: Fc domain of human IgG1
T8 sequence (Q01973 30-406): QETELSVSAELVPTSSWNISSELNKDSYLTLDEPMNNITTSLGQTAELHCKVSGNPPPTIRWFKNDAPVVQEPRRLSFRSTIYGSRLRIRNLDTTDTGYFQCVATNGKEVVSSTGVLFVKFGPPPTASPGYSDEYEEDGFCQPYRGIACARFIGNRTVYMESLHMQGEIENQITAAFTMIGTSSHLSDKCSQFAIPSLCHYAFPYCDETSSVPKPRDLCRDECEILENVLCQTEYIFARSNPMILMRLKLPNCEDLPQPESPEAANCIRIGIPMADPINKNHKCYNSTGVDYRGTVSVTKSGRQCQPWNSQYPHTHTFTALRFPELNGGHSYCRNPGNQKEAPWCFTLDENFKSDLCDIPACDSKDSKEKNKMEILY
Method: (A) Shown are Biacore X100 sensorgrams obtained for the binding of each Fab to hFc-hROR1 captured by anti-human Fcγ antibody immobilized on CM5 chip after instantaneous background depletion. Fabs were injected at five different concentrations with the highest concentration indicated in table (B), one of the five concentrations was tested in duplicates. The equilibrium dissociation constant (Kd) was calculated from koff/kₒₙ (kₒₙ, association rate constant; koff, dissociation rate constant).
Surface plasmon resonance: Surface plasmon resonance for the measurement of the affinities of all Fabs to hFc-hROR1 and for epitope mapping studies were performed on a Biacore X100 instrument using Biacore reagents and software (GE Healthcare, Piscataway, N.J.). Anti-Human IgG (Fc) antibody was immobilized on a CM5 sensor chip following the instruction of Human Antibody Capture Kit (GE Healthcare, Piscataway, N.J.). The sensor chip included an empty flow cell for instantaneous background depletion. All binding assays used 1×HBS-EP+ running buffer (10 mM HEPES, 150 mM NaCl, 3 mM EDTA (pH 7.4), and 0.05% (v/v) Surfactant P20) and a flow rate of […]. […] The sensor chip was regenerated with […] from the Human Antibody Capture Kit without any loss of binding capacity. Calculation of association (kₒₙ) and dissociation (koff) rate constants was based on a 1:1 Langmuir binding model. The equilibrium dissociation constant (Kd) was calculated from koff/kₒₙ. For epitope mapping studies, each Fab was prepared at 500 nM alone in 1×HBS-EP+ running buffer and then injected in order as indicated in FIG. 5.

[9] = biological target: human ROR1, full length, on cells (human, UniProt Q01973 30-937); test: cell-based or functional assay
Chain of human ROR1, full length, on cells (Q01973 30-937): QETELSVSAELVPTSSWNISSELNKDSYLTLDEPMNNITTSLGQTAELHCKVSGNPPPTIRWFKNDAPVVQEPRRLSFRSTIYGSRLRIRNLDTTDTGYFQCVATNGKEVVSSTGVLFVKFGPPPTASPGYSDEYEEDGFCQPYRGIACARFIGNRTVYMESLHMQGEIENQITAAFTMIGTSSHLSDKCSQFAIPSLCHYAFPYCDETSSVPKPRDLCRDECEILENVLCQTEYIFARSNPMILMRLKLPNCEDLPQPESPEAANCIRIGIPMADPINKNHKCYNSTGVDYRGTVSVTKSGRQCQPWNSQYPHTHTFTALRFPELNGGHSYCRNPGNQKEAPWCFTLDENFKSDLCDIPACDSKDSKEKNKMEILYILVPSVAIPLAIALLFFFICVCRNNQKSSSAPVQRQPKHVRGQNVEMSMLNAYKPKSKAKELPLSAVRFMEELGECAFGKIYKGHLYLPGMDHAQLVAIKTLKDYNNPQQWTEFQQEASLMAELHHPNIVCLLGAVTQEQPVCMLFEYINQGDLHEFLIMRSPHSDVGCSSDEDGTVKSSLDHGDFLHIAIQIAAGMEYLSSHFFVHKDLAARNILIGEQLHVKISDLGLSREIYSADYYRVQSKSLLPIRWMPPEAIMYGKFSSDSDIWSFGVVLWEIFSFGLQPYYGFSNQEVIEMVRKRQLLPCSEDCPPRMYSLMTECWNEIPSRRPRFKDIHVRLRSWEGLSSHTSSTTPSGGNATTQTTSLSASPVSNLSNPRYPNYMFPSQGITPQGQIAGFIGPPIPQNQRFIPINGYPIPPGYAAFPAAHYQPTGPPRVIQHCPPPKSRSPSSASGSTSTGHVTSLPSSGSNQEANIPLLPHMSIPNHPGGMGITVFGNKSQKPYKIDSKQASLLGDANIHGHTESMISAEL

T1 sequence (Q01974 34-943 limits assumed): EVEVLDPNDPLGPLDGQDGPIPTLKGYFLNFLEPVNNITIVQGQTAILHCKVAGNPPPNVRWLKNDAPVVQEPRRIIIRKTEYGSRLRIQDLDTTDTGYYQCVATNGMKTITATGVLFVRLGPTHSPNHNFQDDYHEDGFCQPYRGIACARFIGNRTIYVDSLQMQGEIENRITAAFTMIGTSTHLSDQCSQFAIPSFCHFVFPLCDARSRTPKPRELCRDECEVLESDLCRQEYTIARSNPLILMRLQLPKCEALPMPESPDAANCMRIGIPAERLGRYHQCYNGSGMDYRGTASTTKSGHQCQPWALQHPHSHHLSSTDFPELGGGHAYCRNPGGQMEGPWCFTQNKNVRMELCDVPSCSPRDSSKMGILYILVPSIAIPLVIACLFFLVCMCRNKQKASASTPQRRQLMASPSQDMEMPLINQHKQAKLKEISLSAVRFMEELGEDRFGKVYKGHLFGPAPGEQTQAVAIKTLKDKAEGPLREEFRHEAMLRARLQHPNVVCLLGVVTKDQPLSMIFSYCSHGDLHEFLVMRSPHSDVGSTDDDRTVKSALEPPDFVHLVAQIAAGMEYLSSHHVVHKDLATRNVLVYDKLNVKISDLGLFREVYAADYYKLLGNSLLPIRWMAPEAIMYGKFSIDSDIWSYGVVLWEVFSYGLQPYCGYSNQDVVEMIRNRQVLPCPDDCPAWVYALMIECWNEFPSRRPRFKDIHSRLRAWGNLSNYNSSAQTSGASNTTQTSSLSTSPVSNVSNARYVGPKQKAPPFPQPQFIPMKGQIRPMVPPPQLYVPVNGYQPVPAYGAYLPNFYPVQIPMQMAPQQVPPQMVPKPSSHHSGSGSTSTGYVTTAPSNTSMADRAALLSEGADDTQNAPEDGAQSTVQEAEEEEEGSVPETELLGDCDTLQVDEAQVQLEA

binding result [1]	binding result [2]	binding result [3]	binding result [4]	binding result [5]	binding result [6]	binding result [7]	Kd [8] [nM]	koff [8] [s⁻¹]	kon [8] [M⁻¹ s⁻¹]	Binder	IC50 values on 697 cells (in vitro cell killing) [9] [µg/mL]
no binding (tested: 1000 ng/100 µL)	no binding	no binding	no binding	no binding	no binding (tested: 100 ng/50 µL)	no binding (tested: 100 ng/50 µL)	281	0.0162	57500	ERR1-409 chimeric rabbit/human Fab (Fab, V domains shown, Chimeric rabbit/human Fab with His tag, expressed in E. coli (pET11a); lambda light chain) VH: QEQLVESGGRLVTPGGSLTLTCTASGFSLSSYYMGWVRQAPGKGLEWIGTIYGGSGSTWYASWVKGRFTISKTSTAVDLKITSLTTEDTATYFCARSYPGWTTEPYFDIWGPGTLVTVSS VL: QFVLTQPQSVSGSLGQTVSISCNRDSGNIEDYYVHWYQQHPGKAPTTVIYNDDQRPSGVPDRFSGSIDSTSNSASLTITGLLAEDEADYYCLSSDSSAYVFGGGTQLTVTG	
no binding (tested: 1000 ng/100 µL)	no binding	no binding	no binding	no binding	no binding (tested: 100 ng/50 µL)	no binding (tested: 100 ng/50 µL)	41.6	0.00128	30800	ERR1-403 chimeric rabbit/human Fab (Fab, V domains shown, Chimeric rabbit/human Fab with His tag, expressed in E. coli (pET11a); lambda light chain) VH: QEQLKESGRGLVQPGGSLKLSCKASGFDFSGWYMTWVRQAPGKGLEWIGTIGTTKGRTYYASWVNGRFTISSNAQNTVDLQMNSLTAADRATYFCVRGSDYFDLWGPGTLVTISS VL: SYELTQLPSVSVSLGQTARITCGGNSIGSKAVNWYQQKPGLAPGLLIYDDDERPSGVPARFSGSNSGDTATLTISGAQAGDEADYYCQLWDSSAGAYVFGGGTQLTVTG	
no binding (tested: 1000 ng/100 µL)	no binding	no binding	no binding	no binding	no binding (tested: 100 ng/50 µL)	no binding (tested: 100 ng/50 µL)	240	0.0592	247000	ERR1-TOP4 chimeric rabbit/human Fab (Fab, V domains shown, Chimeric rabbit/human Fab with His tag, expressed in E. coli (pET11a); lambda light chain) VH: QSVEESGGRLVTPGTPLTLTCTASGIDLSRYAVNWVRQAPGKGLEWIGVISGSGTTYYASWAKGRFTISKTSTTVDLKITSPTTEDTATYFCARGWATDGIFDYDDTFNLWGPGTLVTVSS VL: SYELTQLPSVSVSLGQTARITCGGDSIESKAVHWYQQKPGLAPGLLVYNDDERPSGVPDRFSGSNSGDTATLTISGAQAGDEADYYCQLWDGSAYVFGGGTQLTVTG	
										HuXBR1-402(3)-G5-PNU (Adc456) (other, Gly5-EDA-PNU joined by sortase to the C-terminal G5SLPETG tag of the full light chain; Gly5-EDA-PNU joined by sortase to the C-terminal LPETG tag of the full heavy chain) VH: QVQLRESGPGLVKPSETLSLTCTVSGFDISSYYMSWVRQPPGKGLEWIGAIGISGNAYYASWAKSRVTISRDTSKNQFSLKLSSVTAADTAVYYCARDHPTYGMDLWGPGTLVTVSS VL: SYELTQPLSVSVALGQTARITCEGNNIGSKAVHWYQQKPGQAPVLVIYDDDERPSGIPERFSGSNSGNTATLTISRAQAGDEADYYCQVWDSSAYVFGGGTKLTVLG	0.0981
										HuXBR1-402(15)-G5-PNU (Adc458) (other, Gly5-EDA-PNU joined by sortase to the C-terminal G5SLPETG tag of the full light chain; Gly5-EDA-PNU joined by sortase to the C-terminal LPETG tag of the full heavy chain) VH: QVQLQESGPGLVKPSETLSLTCTVSGFDISSYYMSWVRQPPGKGLEWIGAIGISGNAYYASWAKSRVTISRDTSKNQFSLKLSSVTAADTAVYYCARDHPTYGMDLWGPGTLVTVSS VL: SYELTQPPSVSVAPGKTARITCEGNNIGSKAVHWYQQKPGQAPVLVIYDDDERPSGIPERFSGSNSGNTATLTISRVEAGDEADYYCQVWDSSAYVFGGGTKLTVLG	0.106
										HuXBR1-402(19)-G5-PNU (Adc460) (other, Gly5-EDA-PNU joined by sortase to the C-terminal G5SLPETG tag of the full light chain; Gly5-EDA-PNU joined by sortase to the C-terminal LPETG tag of the full heavy chain) VH: QVQLQESGPGLVKPSETLSLTCTVSGFDISSYYMSWVRQPPGNGLEWIGAIGISGNAYYASWAKSRVTISRDTSKNQFSLKLSSVTAADTAVYYCARDHPTYGMDLWGPGTLVTVSS VL: SYELTQPPSVSVAPGKTARITCEGNNIGSKAVHWYQQKPGQAPVLVIYDDDERPSGIPERFSGSNSGNTATLTISRVEAGDEADYYCQVWDSSAYVFGGGTKLTVLG	0.0917
										HuXBR1-402(26)-G5-PNU (Adc461) (other, Gly5-EDA-PNU joined by sortase to the C-terminal G5SLPETG tag of the full light chain; Gly5-EDA-PNU joined by sortase to the C-terminal LPETG tag of the full heavy chain) VH: QVQLQESGPGLVKPSETLSLTCTVSGFDISSYYMSWVRQPPGNGLEWIGAIGISGNAYYASWAKSRVTISRDTSKNQFSLKLSSVTAADTAVYYCARDHPTYGMDLWGPGTLVTVSS VL: SYELTQPLSVSVALGQTARITCEGNNIGSKAVHWYQQKPGLAPVLVIYDDDERPSGIPERFSGSNSGNTATLTISRAQAGDEADYYCQVWDSSAYVFGGGTQLTVLG	0.0939
										HuXBR1-402(17)-G5-PNU (Adc459) (other, Gly5-EDA-PNU joined by sortase to the C-terminal G5SLPETG tag of the full light chain; Gly5-EDA-PNU joined by sortase to the C-terminal LPETG tag of the full heavy chain) VH: QVQLRESGPGLVKPSETLSLTCTVSGFDISSYYMSWVRQPPGKGLEWIGAIGISGNAYYASWAKSRVTISRDTSKNQFSLKLSSVTAADTAVYYCARDHPTYGMDLWGPGTLVTVSS VL: SYELTQPPSVSVAPGKTARITCEGNNIGSKAVHWYQQKPGQAPVLVIYDDDERPSGIPERFSGSNSGNTATLTISRVEAGDEADYYCQVWDSSAYVFGGGTKLTVLG	0.0706
										HuXBR1-402(8)-G5-PNU (Adc457) (other, Gly5-EDA-PNU joined by sortase to the C-terminal G5SLPETG tag of the full light chain; Gly5-EDA-PNU joined by sortase to the C-terminal LPETG tag of the full heavy chain) VH: QVQLQESGPGLVKPSETLSLTCTVSGFDISSYYMSWVRQPPGKGLEWIGAIGISGNAYYASWAKSRVTISRDTSKNQFSLKLSSVTAADTAVYYCARDHPTYGMDLWGPGTLVTVSS VL: SYELTQPPSVSVSPGQTAIITCEGNNIGSKAVHWYQQKPGLSPVLVIYDDDERPSGIPERFSGSNSGNTATLTVSGTQDMDEADYYCQVWDSSAYVFGGGTKLTVLG	0.164
